Assay results as given in patent US20180155427A1 (Novartis, published 2018).
Positions count from the first letter of the chain named. In names and notes the source's numbering stands.

B1: murine anti-PD-1 monoclonal antibody BAP049 (antibody, V domains shown)
VH: QVQLQQSGSELVRPGASVKLSCKASGYTFTTYWMHWVRQRPGQGLEWIGNIYPGTGGSNFDEKFKNRTSLTVDTSSTTAYMHLASLTSEDSAVYYCTRWTTGTGAYWGQGTLVTVSA
VL: DIVMTQSPSSLTVTAGEKVTMSCKSSQSLLDSGNQKNFLTWYQQKPGQPPKLLIFWASTRESGVPDRFTGSGSVTDFTLTISSVQAEDLAVYYCQNDYSYPCTFGGGTKLEIK
notes: the murine constant regions are not; also called murine mAb BAP049; Mu mAb
B2: humanized mAb BAP049-hum01 (antibody, human IgG4 S228P, kappa, V domains shown)
VH: EVQLVQSGAEVKKPGESLRISCKGSGYTFTTYWMHWVRQATGQGLEWMGNIYPGTGGSNFDEKFKNRVTITADKSTSTAYMELSSLRSEDTAVYYCTRWTTGTGAYWGQGTTVTVSS
VL: EIVLTQSPATLSLSPGERATLSCKSSQSLLDSGNQKNFLTWYQQKPGQAPRLLIYWASTRESGVPSRFSGSGSGTEFTLTISSLQPDDFATYYCQNDYSYPYTFGQGTKVEIKR
notes: Human IgG4(S228P), human kappa; tested as concentrated supernatant of transiently transfected CHO cells; also called Clone No. 01
B3: humanized mAb BAP049-hum05 (antibody, human IgG4 S228P, kappa, V domains shown)
VH: B2 VH
VL: B2 VL with Q48K, R51K, E76D, L79F, D87E, F89I
notes: Human IgG4(S228P), human kappa; tested as concentrated supernatant of transiently transfected CHO cells; also called Clone No. 05
B4: humanized mAb BAP049-hum10 (antibody, human IgG4 S228P, kappa)
heavy: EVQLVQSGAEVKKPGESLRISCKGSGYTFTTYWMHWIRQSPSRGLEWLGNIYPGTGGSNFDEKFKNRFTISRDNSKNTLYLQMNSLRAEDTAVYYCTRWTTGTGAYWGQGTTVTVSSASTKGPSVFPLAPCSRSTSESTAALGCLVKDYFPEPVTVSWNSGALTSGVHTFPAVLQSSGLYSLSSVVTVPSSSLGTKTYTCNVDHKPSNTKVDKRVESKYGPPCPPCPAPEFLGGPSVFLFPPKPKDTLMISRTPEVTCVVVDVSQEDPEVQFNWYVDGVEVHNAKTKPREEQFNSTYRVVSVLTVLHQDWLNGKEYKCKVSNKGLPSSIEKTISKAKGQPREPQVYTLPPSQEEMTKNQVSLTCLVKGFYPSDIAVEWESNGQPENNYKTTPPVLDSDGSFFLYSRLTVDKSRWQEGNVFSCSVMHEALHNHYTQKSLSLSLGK
light: EIVLTQSPATLSLSPGERATLSCKSSQSLLDSGNQKNFLTWYQQKPGQAPRLLIYWASTRESGVPSRFSGSGSGTDFTFTISSLEAEDAATYYCQNDYSYPYTFGQGTKVEIKRTVAAPSVFIFPPSDEQLKSGTASVVCLLNNFYPREAKVQWKVDNALQSGNSQESVTEQDSKDSTYSLSSTLTLSKADYEKHKVYACEVTHQGLSSPVTKSFNRGEC
notes: Human IgG4(S228P), human kappa; tested as concentrated supernatant of transiently transfected CHO cells; also called Clone No. 10
B5: humanized mAb BAP049-hum08 (antibody, human IgG4 S228P, kappa)
heavy: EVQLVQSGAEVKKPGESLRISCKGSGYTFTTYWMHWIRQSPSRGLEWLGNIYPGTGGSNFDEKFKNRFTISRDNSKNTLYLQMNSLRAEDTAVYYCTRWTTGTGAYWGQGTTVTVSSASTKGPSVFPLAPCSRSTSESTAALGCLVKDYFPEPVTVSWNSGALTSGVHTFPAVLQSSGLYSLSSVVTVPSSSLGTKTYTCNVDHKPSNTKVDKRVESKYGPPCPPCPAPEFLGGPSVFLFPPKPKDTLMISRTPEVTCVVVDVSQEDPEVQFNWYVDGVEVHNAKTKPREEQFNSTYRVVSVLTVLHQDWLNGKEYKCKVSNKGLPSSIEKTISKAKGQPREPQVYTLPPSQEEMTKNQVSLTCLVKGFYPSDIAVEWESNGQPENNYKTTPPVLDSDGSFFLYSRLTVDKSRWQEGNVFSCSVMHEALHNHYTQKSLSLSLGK
light: B4 light with A9D, T10F, L11Q, L13V, S14T, G16K, R18K, A19V, L21I, S22T
notes: Human IgG4(S228P), human kappa; tested as concentrated supernatant of transiently transfected CHO cells; also called Clone No. 08
B6: humanized mAb BAP049-hum14 (antibody, human IgG4 S228P, kappa)
heavy: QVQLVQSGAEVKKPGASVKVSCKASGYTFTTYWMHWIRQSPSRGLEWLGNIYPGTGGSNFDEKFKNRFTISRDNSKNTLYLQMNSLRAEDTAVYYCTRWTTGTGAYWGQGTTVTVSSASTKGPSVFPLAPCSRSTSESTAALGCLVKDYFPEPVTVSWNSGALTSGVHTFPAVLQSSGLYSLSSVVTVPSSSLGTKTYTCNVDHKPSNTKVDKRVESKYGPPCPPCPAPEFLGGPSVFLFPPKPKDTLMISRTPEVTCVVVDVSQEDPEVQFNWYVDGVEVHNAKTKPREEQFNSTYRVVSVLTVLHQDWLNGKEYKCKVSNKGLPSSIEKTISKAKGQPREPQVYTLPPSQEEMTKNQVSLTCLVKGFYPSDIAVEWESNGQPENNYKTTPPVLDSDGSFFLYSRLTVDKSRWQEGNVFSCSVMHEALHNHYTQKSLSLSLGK
light: B4 light
notes: Human IgG4(S228P), human kappa; tested as concentrated supernatant of transiently transfected CHO cells
B7: humanized mAb BAP049-hum02 (antibody, human IgG4 S228P, kappa, V domains shown)
VH: B2 VH
VL: DIQMTQSPSSLSASVGDRVTITCKSSQSLLDSGNQKNFLTWYQQKPGQAPRLLIYWASTRESGIPPRFSGSGYGTDFTLTINNIESEDAAYYFCQNDYSYPYTFGQGTKVEIKR
notes: as for B6
B8: humanized mAb BAP049-hum03 (antibody, human IgG4 S228P, kappa, V domains shown)
VH: EVQLVQSGAEVKKPGESLRISCKGSGYTFTTYWMHWIRQSPSRGLEWLGNIYPGTGGSNFDEKFKNRFTISRDNSKNTLYLQMNSLRAEDTAVYYCTRWTTGTGAYWGQGTTVTVSS
VL: B7 VL
notes: as for B6
B9: humanized mAb BAP049-hum12 (antibody, human IgG4 S228P, kappa, V domains shown)
VH: B2 VH
VL: DIQMTQSPSSLSASVGDRVTITCKSSQSLLDSGNQKNFLTWYLQKPGQSPQLLIYWASTRESGVPSRFSGSGSGTDFTFTISSLEAEDAATYYCQNDYSYPYTFGQGTKVEIKR
notes: as for B6
B10: humanized mAb BAP049-hum13 (antibody, human IgG4 S228P, kappa)
heavy: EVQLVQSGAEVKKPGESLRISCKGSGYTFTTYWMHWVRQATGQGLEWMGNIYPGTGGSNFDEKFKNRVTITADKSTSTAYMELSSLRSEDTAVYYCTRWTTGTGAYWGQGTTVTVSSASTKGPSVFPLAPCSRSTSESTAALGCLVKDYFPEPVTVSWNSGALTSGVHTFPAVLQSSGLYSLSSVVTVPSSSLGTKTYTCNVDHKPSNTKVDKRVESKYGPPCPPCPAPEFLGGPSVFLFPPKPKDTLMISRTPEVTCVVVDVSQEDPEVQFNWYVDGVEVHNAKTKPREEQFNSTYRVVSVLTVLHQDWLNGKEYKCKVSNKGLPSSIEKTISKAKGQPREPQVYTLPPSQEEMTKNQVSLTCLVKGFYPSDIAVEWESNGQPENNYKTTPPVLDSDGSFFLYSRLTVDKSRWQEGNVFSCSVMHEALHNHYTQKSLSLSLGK
light: DVVMTQSPLSLPVTLGQPASISCKSSQSLLDSGNQKNFLTWYQQKPGKAPKLLIYWASTRESGVPSRFSGSGSGTDFTFTISSLEAEDAATYYCQNDYSYPYTFGQGTKVEIKRTVAAPSVFIFPPSDEQLKSGTASVVCLLNNFYPREAKVQWKVDNALQSGNSQESVTEQDSKDSTYSLSSTLTLSKADYEKHKVYACEVTHQGLSSPVTKSFNRGEC
notes: as for B6
B11: chimeric antibody BAP049-chi (Ser) (antibody, human IgG4 S228P, kappa, V domains shown)
VH: B1 VH with L112T, A117S
VL: DIVMTQSPSSLTVTAGEKVTMSCKSSQSLLDSGNQKNFLTWYQQKPGQPPKLLIFWASTRESGVPDRFTGSGSVTDFTLTISSVQAEDLAVYYCQNDYSYPSTFGQGTKVEIKR
notes: also called Chi mAb (Ser)
B12: chimeric antibody BAP049-chi (Tyr) (antibody, human IgG4 S228P, kappa, V domains shown)
VH: B1 VH with L112T, A117S
VL: B11 VL with S102Y
notes: Murine variable regions, human IgG4(S228P), human kappa; also called BAP049-chi-Y; Chi mAb (Tyr)

biological target: human PD-1-Ig fusion protein (human, UniProt Q15116 25-167); test: ELISA
Sequence (Q15116 25-167): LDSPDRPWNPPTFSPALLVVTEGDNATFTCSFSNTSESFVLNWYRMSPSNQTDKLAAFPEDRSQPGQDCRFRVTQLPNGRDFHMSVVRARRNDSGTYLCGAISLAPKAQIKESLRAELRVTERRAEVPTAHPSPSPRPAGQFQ

| Kd | Binder |
| --- | --- |
| 0.04 nM | B1 |

biological target: T1, cynomolgus PD-1 expressed on cells (cynomolgus, UniProt B0LAJ3 25-288); test: FACS on cynomolgus T cells
T1 construct: also called cynomolgus T cells; cells transfected with cynomolgus PD-1
T1 sequence (B0LAJ3 entry or part of it limits assumed): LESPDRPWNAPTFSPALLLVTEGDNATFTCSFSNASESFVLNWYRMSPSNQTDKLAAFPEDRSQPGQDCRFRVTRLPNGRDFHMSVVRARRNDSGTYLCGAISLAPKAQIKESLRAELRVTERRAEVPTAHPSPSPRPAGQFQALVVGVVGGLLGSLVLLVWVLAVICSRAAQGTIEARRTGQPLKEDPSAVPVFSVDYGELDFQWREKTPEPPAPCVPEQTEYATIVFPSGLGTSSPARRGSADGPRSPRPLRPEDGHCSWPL

| Kd | Binder |
| --- | --- |
| 0.4 nM | B1 |

biological target: T2, human PD-1 expressed on cells (human, UniProt Q15116 25-288); test: FACS on human PD-1 transfected Jurkat cells
T2 construct: whole, on cells; Treated as one molecule; also called PD-1 expressing Jurkat cells; human PD-1 transfected Jurkat cells
T2 sequence (Q15116 25-288): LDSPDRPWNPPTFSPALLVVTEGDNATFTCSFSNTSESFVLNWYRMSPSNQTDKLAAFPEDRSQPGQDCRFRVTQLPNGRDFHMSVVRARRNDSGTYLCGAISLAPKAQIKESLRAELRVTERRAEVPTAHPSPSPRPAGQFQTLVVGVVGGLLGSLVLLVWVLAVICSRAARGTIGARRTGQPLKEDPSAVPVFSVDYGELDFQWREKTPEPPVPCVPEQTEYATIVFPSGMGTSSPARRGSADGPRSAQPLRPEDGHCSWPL

| Kd | Binder |
| --- | --- |
| 0.06 nM | B1 |

biological target: T1, cynomolgus PD-1 expressed on cells; test: FACS on cells transfected with cynomolgus PD-1

| Kd | Binder |
| --- | --- |
| 0.6 nM | B1 |

biological target: T2, human PD-1 expressed on cells; test: rank among the 16 humanized clones by FACS binding data on PD-1-expressing cells

| Ranking FACS data | Binder |
| --- | --- |
| 2 | B2 |
| 5 | B3 |
| 7 | B4 |
| 7 | B5 |
| 16 | B6 |
| 6 | B7 |
| 7 | B8 |
| 3 | B9 |
| 6 | B10 |

biological target: T2, human PD-1 expressed on cells; test: competition binding assay on human PD-1-expressing 300.19 cells, competitor PD-L1; competitor PD-L1

| IC50 | Binder |
| --- | --- |
| 0.3 nM | B1 |

biological target: T2, human PD-1 expressed on cells; test: competition binding assay on human PD-1-expressing 300.19 cells, competitor PD-L2; competitor PD-L2

| IC50 | Binder |
| --- | --- |
| 0.9 nM | B1 |

biological target: T2, human PD-1 expressed on cells; test: FACS competition binding on PD-1 expressing Jurkat cells; competitor: fluorescently labeled murine mAb BAP049; MFI of bound labeled mAb
Experimental: The concentration of the murine mAb was determined by OD280 measurement, whereas the chimeric mAb concentrations in supernatants were determined with an ELISA using an IgG4 standard.

| binding result | Binder |
| --- | --- |
| binds | B11 |

biological target: T2, human PD-1 expressed on cells; test: rank among the 16 humanized clones in competition with Alexa 488-labeled murine mAb BAP049 on PD-1-expressing 300.19 cells, first experiment
Experimental: (§1) Incubations with the mAb mixtures having different concentration ratios of test mAb to labeled mAb was at 4° C. for 30 min. Bound labeled murine mAb was then quantified using a FACS machine. The experiment was performed twice.

| Competition Binding 1st exp. (rank) | Binder |
| --- | --- |
| 7 | B2 |
| 5 | B3 |
| 6 | B4 |
| 7 | B5 |
| 7 | B6 |
| 3 | B7 |
| 8 | B8 |
| 8 | B9 |
| 1 | B10 |

biological target: T2, human PD-1 expressed on cells; test: rank among the 16 humanized clones in competition with Alexa 488-labeled murine mAb BAP049 on PD-1-expressing 300.19 cells, second experiment
Experimental: as §1

| Competition Binding 2nd exp. (rank) | Binder |
| --- | --- |
| 2 | B2 |
| > 4 | B3 |
| > 4 | B4 |
| 4 | B5 |
| 15 | B6 |
| 2 | B7 |
| 14 | B8 |
| 16 | B9 |
| 1 | B10 |

biological target: T2, human PD-1 expressed on cells; test: FACS blocking assay on PD-1-expressing 300.19 cells; blocked ligand at constant concentration: PD-L1-huIgG1 Fc fusion protein (legend paragraph 211 names 'PD-L1-Ig and PD-L2-Ig' for FIG. 8A); bound ligand detected with PE anti-human IgG F(ab')2
Experimental: Incubation was at 4° C. for 30 min. Bound ligand fusion proteins were detected with PE-conjugated F(ab′)2 fragment of goat anti-human IgG which doesn't recognize IgG4 mAbs (Southern Biotech 2043-09), and flow cytometry.

| IC50 (read off the curve) | Binder |
| --- | --- |
| ~1 µg/mL | B2 |
| ~1 µg/mL | B3 |
| ~1 µg/mL | B4 |
| ~0.8 µg/mL | B12 |
| ~0.6 µg/mL | B1 |
